Results from publication PMC5886543, “A staphylococcal anti-sigma factor possesses a single-domain, carries different denaturant-sensitive regions and unfolds via two intermediates” (PLoS ONE, 2018).

Target: the molecule itself
Experiment: cross-linking; rRsbW 10 uM in buffer B (20 mM phosphate pH 8.0, 100 mM NaCl, 5% glycerol), 0.1% glutaraldehyde, 2 min, 25 C; SDS-13.5% PAGE; no denaturant

B1: rRsbW, a recombinant S. aureus RsbW (enzyme, Staphylococcus aureus Newman, UniProt A6QIR1 1-159, looked up)
chain: MQSKEDFIEMRVPASAEYVSLIRLTLSGVFSRAGATYDDIEDAKIAVSEAVTNAVKHAYKENNNVGIINIYFEILEDKIKIVISDKGDSFDYETTKSKIGPYDKDENIDFLREGGLGLFLIESLMDEVTVYKESGVTISMTKYIKKEQVRNNGERVEIS
notes: RsbW of Staphylococcus aureus Newman, UniProt A6QIR1; 480 bp insert amplified from genomic DNA with primers rsbWF (begins at the ATG) and rsbWR; native RsbW 17.92 kDa, rRsbW 21.74 kDa. numbers count on: rRsbW with its 36 N-terminal extra residues (RsbW residue 1 is rRsbW residue 37); Surmised: the 36 extra residues are those that pET28a adds before its EcoRI site; also called anti-sigma factor; …
- stoichiometry N: 2
